In PMC9804390 one finds Kd data, which are given here for three substances.

What all share (test): SPR
The target of test [1] is LRP1 CR doublet CR.5-6 (human).
Test [2] concerns the target LRP1 CR doublet CR.22-23 (human).
Test [3] deals with LRP1 CR doublet CR.27-28 (human).
Test [4] addresses low density lipoprotein receptor-related protein 1 (LRP1) (UniProt Q07954).
The target of test [5] is LRP1 CR.7–8 doublet (UniProt Q07954).
For test [6], the target named is LRP1 cluster II (CR.3–10) (UniProt Q07954).
Test [7] concerns the target LRP1 CR.6–8 triplet.
Test [8] deals with LRP1 cluster IV (CR.21–31) (UniProt Q07954).
Test [9] addresses LRP1 CR.6–7 doublet.

Broadly, the Kd is the free concentration of one partner at which half of the binding sites on the other are occupied at equilibrium, for simple one-to-one binding. Consider “Recombinant full-length factor VIII (natural protein)”, for which the Kd in test [1] amounted to 131 nM. This counts as sub-micromolar.
On to “B domain-deleted factor VIII (recombinant, product C) (natural protein)”, for which the results for the Kd in test [2] and in test [3] were 172 nM and 165 nM, respectively.
For “Recombinant full-length FVIII (product A) (natural protein)”, the Kd stood at 22.8 nM in [4]; 81.5 nM in test [5]; 11.3 nM in test [6]; 28.4 nM in test [7]; 19.6 nM in [8]; 65.2 nM in test [9].
